According to patent publication US20050227302A1, “Induction of apoptosis via ARTS-IAP complexes” (priority 2004, published 2005):

What was measured:
HL-60 cells = assay: Caspase 3 activity assay in ARTS-transfected HL-60 cells; format: cell-based
Experimental: (§1) K562 and HL-60 cells were grown in RPMI 1640 medium. A549, COS-7 cells were grown in Dulbecco's modified Eagle medium (DMEM) with 4.5 grams/liter (g/L) D-glucose. All cells were grown at 37° C. in a 5% CO2 atmosphere. All media were supplemented with 10% fetal calf serum (FCS), penicillin (100 U/ml), streptomycin (100 micrograms (μg)/ml) and […] millimolar [mM]) (Biological Industries, Israel). pEF1-AU5 and pEF1-AU5-ARTS constructs were used for all ARTS transient transfection experiments. An AU5 tag was attached to the N' terminus of ARTS as described in ([…] et al, Nat Cell Biol 2: 915-921, 2000). The […] construct was generated by replacing three amino acids ([…]) at the GTP binding site, using site-directed mutagenesis (QuickChangeTM, Stratagene) with the primer: [NT] No: 1). COS-7, K562 and HL-60 cells were transiently transfected using electroporation (EasyjectTM plus-Equibio). A549 cells were transiently transfected using lipofectaminTM (Invitrogen) according to the manufacturer's protocol. The following apoptotic agents were used: TGF-beta (10 ng/ml) for 24 hours in medium containing 1% FCS; […] etoposide for 2 or 16 hours (Sigma); staurosporine (STS) ([…]) for 0-3 hours (Sigma); and arabinoside-c (ara-C, cytosar) (Pharmacia) at […] for 4 hours. In the case of transiently transfected cells, agents were added forty hours after transfections. […]

COS-7 cells = assay: Active caspase 3 immunofluorescence staining in ARTS-transfected COS-7 cells; format: cell-based, African Green Monkey
Experimental: as §1

XIAP [1] = molecular target: T1, XIAP (Homo sapiens, UniProt P98170); assay: GST pull-down assay of ARTS and XIAP; format: binding
T1 construct: made in house; host or cells: bacteria (pGEX-XIAP plasmid obtained from Dr. Colin S. Duckett)
Excerpt: For the glutathione-S-transferase (GST)-pull down assays, ARTS was subcloned into the pGEX 4T™ (Pharmacia Biotech) construct; GST-ARTS fusion protein was generated by Polymerase Chain Reaction (PCR) using the following primers: • BamHI-5′-[…]-3′ (SEQ ID No: 4) and • EcoRI-5′ […]-3′ (SEQ ID No: 5) and cloned into BamHI and EcoRI sites in pGEX 4T. Preparation of Beads
For in vitro binding studies, recombinant GST-ARTS or GST-XIAP fusion proteins were purified from bacteria. After sonication, 0.1% Triton X-100 and protease inhibitors (Mini-Complete™, Roche) were added to the bacterial extract followed by 10,000 rotations per minute (RPM) centrifugation. Supernatants of bacterial extracts were collected and incubated in the presence of glutathione-Sepharose 4B beads (Amersham Biosciences) for 30 minute at 4° C. The beads were washed three times.
Cells were lysed in RIPA buffer (150 mM NaCl, 50 mM Tris-HCl (pH 8), 1% NP-40, 0.1% SDS, 0.5% deoxycholate acid containing protease inhibitors (mini Complete, Roche)). Samples were divided into two tubes; one was rotated for 4 h at 4° C. with GST-ARTS fusion protein coupled with the glutathione beads, or GST-XIAP fusion protein. The second tube was incubated with glutathione beads alone (negative control). Samples were centrifuged at 4000-RPM at 4° C. for 4 minute and washed five times in lysis buffer, then boiled in sample buffer for 5 minutes to elute bound proteins Proteins were separated on 12.5% SDS-PAGE gel followed by Western blot analysis using monoclonal anti-ARTS antibody (Sigma), monoclonal anti-XIAP antibody (BD Transduction Laboratories) or monoclonal anti-myc antibody (Clontech).

XIAP [2] = assay: Co-immunoprecipitation of ARTS-XIAP complexes in COS-7 cells; format: cell-based, African Green Monkey; conditions: un-transfected COS-7 cells, apoptosis induced with staurosporine, IP anti-ARTS
Experimental: Protein extracts were prepared with lysis buffer (150 mM NaCl, 50 mM Tris-HCl (pH 8), 1% NP-40, 0.5% deoxycholate acid) with protease inhibitors. Lysates containing equal amounts of total protein were pre-cleared overnight with 1 mg mouse IgG (Sigma) coupled with protein A/G-Sepharose mix (Amersham Biosciences) and the beads centrifuged. Supernatants were immuno-precipitated using 5 μl of anti-ARTS antibody for 4 h, anti-XIAP antibody, rabbit anti-myc antibody, or mouse IgG (negative control). Protein A/G Sepharose beads were added for 1 hour and washed four times with PBS. Antibodies against XIAP (as above), Myc (Santa Cruz), or anti-ARTS (NT) antibodies directed against the common N′ terminus of ARTS and H5 (ProSci Incorporated) were used for Western blot.

[3] = molecular target: T2, Myc epitope-tagged wild-type XIAP (Homo sapiens (Human), UniProt P98170 1-497); assay: immunofluorescence co-localization by confocal microscopy in COS-7 cells transfected with AU5-ARTS and pcDNA3-Myc-XIAP, treated with etoposide
T2 construct: Expressed by transient transfection in COS-7 cells and used as cell lysate; The construct came from Dr. Colin S. Duckett; also called myc-tagged XIAP; mycXIAP
Experimental: FIG. 5. ARTS and XIAP co-localize during apoptosis. Immunofluorescence assay of COS-7 cells with anti-ARTS antibody (left column) and anti-XIAP antibody (second column from left). Nuclei are stained with Dapi (third column from left). Merged images are shown in the right column. Cells were untreated (top panel) or treated with […] etoposide for 2 hours (middle panel) or 16 hours (lower panel). Cells were analyzed using confocal microscopy (magnification 60). Non-apoptotic cells had very little overlap between ARTS and XIAP staining (top panel), with ARTS primarily localized to mitochondria and XIAP staining cytoplasmic, with some peri-nuclear concentration. Two hours after induction of apoptosis, co-localization of ARTS and XIAP occurred primarily near the nucleus (middle panel). After 16 hr both proteins perfectly co-localized in the nucleus.
To confirm the finding that ARTS-XIAP complexes exist in apoptotic cells, COS-7 cells transfected with AU5-ARTS and pcDNA3-Myc-XIAP were visualized by confocal microscopy. Apoptosis was induced with etoposide, and cells were stained after 2 and 16 hours. In non-apoptotic cells, ARTS and XIAP had distinct, essentially non-overlapping distributions, with ARTS primarily localized to mitochondria, whereas XIAP was localized to the cytoplasm, with some peri-nuclear concentration (FIG. 5, top panel). […]

T1 sequence (P98170 whole entry): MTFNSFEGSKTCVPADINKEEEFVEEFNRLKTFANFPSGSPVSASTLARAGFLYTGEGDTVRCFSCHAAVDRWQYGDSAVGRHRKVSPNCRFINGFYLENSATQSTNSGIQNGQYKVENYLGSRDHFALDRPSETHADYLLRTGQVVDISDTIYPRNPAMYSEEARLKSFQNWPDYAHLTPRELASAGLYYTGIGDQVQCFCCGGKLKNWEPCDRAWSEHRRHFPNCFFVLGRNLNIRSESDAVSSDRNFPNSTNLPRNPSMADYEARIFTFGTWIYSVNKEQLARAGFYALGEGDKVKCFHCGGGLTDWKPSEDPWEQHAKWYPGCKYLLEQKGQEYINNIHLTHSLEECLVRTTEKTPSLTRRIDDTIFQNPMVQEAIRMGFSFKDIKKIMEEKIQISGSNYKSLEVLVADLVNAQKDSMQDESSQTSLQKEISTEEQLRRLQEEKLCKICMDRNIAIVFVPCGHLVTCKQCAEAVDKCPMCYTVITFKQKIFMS
T2 sequence (P98170 whole entry): as above

B1: AU5-ARTS (other)
chain: MIKRFLEDTTDDGELSKFVKDFSGNASCHPPEAKTWASRPQVPEPRPQAPDLYDDDLEFRPPSRPQSSDNQQYFCAPAPLSPSARPRSPWGKLDPYDSSEDDKEYVGFATLPNQVHRKSVKKGFDFTLMVAGESGLGKSTLVNSLFLTDLYRDRKLLGAEERIMQTVEITKHAVDIEEKGVRLRLTIVDTPGFGDAVNNTECWKPVAEYIDQQFEQYFRDESGLNRKNIQDNRVHCCLYFISPFGHGYGPSLRLLAPPGAVKGTGQEHQGQGCH
notes: Expressed in transfected COS-7 cells and used as lysate or stained in cells; also called pEF1-AU5-ARTS; AU5-tagged ARTS; not shown: AU5 tag attached to the N' terminus of ARTS
caspase-3 activity (HL-60 cells; expression of ARTS in the absence of pro-apoptotic stimuli, HL-60 cells): increased caspase-3 activity
caspase-3 activity (HL-60 cells; over-expression of ARTS, HL-60 cells treated with ara-C): increased caspase-3 activity
caspase-3 activity (COS-7 cells; expression of ARTS in the absence of pro-apoptotic stimuli, COS-7 cells): little or no effect
caspase-3 activity (COS-7 cells; over-expression of ARTS, COS-7 cells treated with etoposide): increased caspase-3 activity
binding to GST-XIAP (XIAP [1]; lysates of COS-7 cells transfected with AU5-tagged construct, Western blot anti-AU5): bound to XIAP
binding of XIAP to GST-ARTS (XIAP [1]; lysates of COS-7 cells transfected with pcDNA3 mycXIAP, Western blot anti-XIAP and anti-Myc): XIAP bound to ARTS
interaction of endogenous ARTS and XIAP (XIAP [2]): interact with each other
binding result [3]: binds
